Data reported in patent US20250019453A1 (SYNTHEKINE, published 2025).

B1: hIL2Rb_VHH-8 (VHH)
VHH: QVQLQESGGGSVQVGGSLKLSCAASGYTYSSYYCMGWFRQAPGKEREGVAAIDSDGSTSYADSVKGRFTISQDDAKNTLYLQMNSLKPEDTAMYYCAASYEVVDCYPSGYGQDYWGKGTQVTVSS
notes: As a his-tagged phage clone periplasmic extract
B2: hIL-2Rg_VHH22 Mono-Fc VHH (Fc fusion, not shown: a dimerising Fc or GST)
chain: QVQLQESGGGLVQPGGSLRLSCTASGFSFSSYPMTWARQAPGKGLEWVSTIASDGGSTAYAASVEGRFTISRDNAKSTLYLQLNSLKTEDTAMYYCTKGYGDGTPAPGQGTQVTVSS

Columns and labels:
hIL2Rb ECD antigen = biological target: T1, hIL2Rb ECD antigen (human, UniProt P14784 27-240); test: PE-ELISA of phage clones
T1 construct: The immunogen was the ECD fused to human IgG1 hinge and Fc; also called ECD of IL2Rb (human); human IL-2Rβ
T1 sequence: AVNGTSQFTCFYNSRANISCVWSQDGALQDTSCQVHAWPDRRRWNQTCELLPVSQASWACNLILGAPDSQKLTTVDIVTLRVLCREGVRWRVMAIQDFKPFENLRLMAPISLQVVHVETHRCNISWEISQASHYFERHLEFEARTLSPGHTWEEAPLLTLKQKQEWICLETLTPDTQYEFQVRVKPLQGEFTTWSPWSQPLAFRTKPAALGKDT

[1] = biological target: T2, hIL2Rg-his (Sino Biological, Catalog# 10555) (human, UniProt P31785 23-262); test: SPR Biacore T200; Mono-Fc VHH captured on Protein A chip, hIL2Rg-his analyte; 1:1 Langmuir fit
T2 construct: Bought; also called extracellular domain of hIL2Rg
T2 sequence: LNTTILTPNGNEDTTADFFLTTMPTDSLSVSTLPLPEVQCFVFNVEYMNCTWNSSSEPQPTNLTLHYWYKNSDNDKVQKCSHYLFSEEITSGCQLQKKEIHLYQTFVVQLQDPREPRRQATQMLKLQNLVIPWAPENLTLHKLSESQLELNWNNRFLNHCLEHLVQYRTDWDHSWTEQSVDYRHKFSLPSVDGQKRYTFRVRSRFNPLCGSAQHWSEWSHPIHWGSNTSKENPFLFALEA
From the text: (§1) To confirm and evaluate binding affinities of the binding of the IL2Rg sdAbs, a representative example from each clonotype generated was selected for evaluation of binding via SPR. […] Buffer-subtracted sensograms were processed with Biacore T200 Evaluation Software and globally fit with a 1:1 Langmuir binding model (bulk shift set to zero) to extract kinetics and affinity constants (kₐ, kd, KD). RMAX<100 RU indicates surface density compatible with kinetics analysis. Calculated Rₘₐₓ values were generated using the equation: Rmax=Load (RU)×valency of ligand×(Molecular weight of analyte/Molecular weight of ligand). Surface activity was defined as the ratio of experimental/calculated Rmax.
All experiments were conducted in 10 mM Hepes, 150 mM NaCl, 0.05% (v/v) Polysorbate 20 (PS20) and 3 mM EDTA (HBS-EP+ buffer) on a Biacore T200 instrument equipped with a Protein A chip (Cytiva). Mono-Fc VHH ligands were flowed at 5 μl/min for variable time ranging from 18 to 300 seconds, reaching the capture loads listed in the tables below.
Following ligand capture, injections of a 2-fold dilution series of his-tagged cytokine receptors typically comprising at least five concentrations between 1 μM and 1 nM were performed in either high performance or single cycle kinetics mode. Surface regeneration was achieved by flowing 10 mM glycine-HCl, pH 1.5 (60 seconds, 50 μL/min). Buffer-subtracted sensograms were processed with Biacore T200 Evaluation Software and globally fit with a 1:1 Langmuir binding model (bulk shift set to zero) to extract kinetics and affinity constants (kₐ, kd, KD). RMAX<100 RU indicates surface density compatible with kinetics analysis.

[2] = biological target: T2, hIL2Rg-his (Sino Biological, Catalog# …); test: SPR; ratio of experimental to calculated Rmax
From the text: as §1
Calculated Rmax were generated using the equation Rmax=Load (RU)×valency of ligand×(Molecular weight of analyte/Molecular weight of ligand. Surface activity was defined as the ratio experimental/calculated Rmax. See tables 16 and 17 below for sample information and experimental results.

| Binder | binding result (hIL2Rb ECD antigen) | Kd [1] | koff [1] | kon [1] | Surface Activity [2] |
| --- | --- | --- | --- | --- | --- |
| B1 | binds | – | – | – | – |
| B2 | – | 6.4 nM | 0.00354 s⁻¹ | 554000 M⁻¹ s⁻¹ | 108% |
